Data taken from patent publication US20250122254A1, “Recombinant Fusion Proteins Comprising Interleukin- 18-Binding Protein and Antigen Binding Fragment to Serum Albumin, and Compositions and Uses Thereof” (published 2025).
Like-named read-outs stand apart in the source and are kept apart here.

How the values were obtained:
recombinant human IL-18 [1] = target: T1, recombinant human IL-18 (human, UniProt Q14116); test: cell-based or functional assay
recombinant human IL-18 [2] = target: T1, recombinant human IL-18
Target sequence in this assay (Q14116 37-193 limits assumed): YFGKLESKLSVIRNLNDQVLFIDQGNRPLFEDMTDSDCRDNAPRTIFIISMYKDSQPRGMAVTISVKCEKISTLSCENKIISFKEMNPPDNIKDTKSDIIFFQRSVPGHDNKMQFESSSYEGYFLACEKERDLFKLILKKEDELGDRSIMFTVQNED

B1: recombinant human IL-18-binding protein with His-tag (hIL18BP-his8) (other)
chain: TPVSQTTTAATASVRSTKDPCPSQPPVFPAAKQCPALEVTWPEVEVPLNGTLSLSCVACSRFPNFSILYWLGNGSFIEHLPGRLWEGSTSRERGSTGTQLCKALVLEQLTPALHSTNFSCVLVDPEQVVQRHVVLAQLWAGLRATLPPTQEALPSSHSSPQQQGHHHHHHHH
IC50 of inhibition of IL-18-induced IFN-γ production in KG-1 cells (recombinant human IL-18 [1]): 0.024 nM

B2: APB-R3 protein (protein)
heavy: QVQLVQSGGGPVKPGGSLRLSCAASGFMFRAYSMNWVRQAPGKGLEWVSSISSSGRYIHYADSVKGRFTISRDNAKNSLYLQMNSLRAEDTAVYYCARETVMAGKALDYWGQGTLVTVSSASTKGPSVFPLAPSSKSTSEGTAALGCLVKDYFPEPVTVSWNSGALTSGVHTFPAVLQSSGLYSLSSVVTVPSSSLGTQTYICNVNHKPSNTKVDKKVEPKSSGSAPAPGSTPVSQTTTAATASVRSTKDPCPSQPPVFPAAKQCPALEVTWPEVEVPLNGTLSLSCVACSRFPNFSILYWLGNGSFIEHLPGRLWEGSTSRERGSTGTQLCKALVLEQLTPALHSTNFSCVLVDPEQVVQRHVVLAQLWAGLRATLPPTQEALPSSHSSPQQQG
light: DIVLTQSPGTLSLSPGETATLSCRASQSVGSNLAWYQQKPGQAPRLLIYGASTGATGVPARFSGSRSGTDFTLTITSLQPEDFATYYCQQYYSFLAKTFGQGTQLEIKRTVAAPSVFIFPPSDEQLKSGTASVVCLLNNFYPREAKVQWKVDNALQSGNSQESVTEQDSKDSTYSLSNTLTLSKADYEKHKVYACEVTHQGLSSPVTKSFNRGES
IC50 of inhibition of IL-18-induced IFN-γ production in KG-1 cells (recombinant human IL-18 [2]): 0.0419 nM
